This data set deals with the molecule itself. The data set is described as follows: hydrogelation with CD, TEM and rheology.

Square brackets hold non-standard residues; d marks the D form.

B1: AcVES3 peptide hydrogel (peptide)
peptide: Ac-VEVSVSVEV[dP]PTEVSVEVEV-NH2
SMILES: CC(=O)N[C@H](C(=O)N[C@@H](CCC(=O)O)C(=O)N[C@H](C(=O)N[C@@H](CO)C(=O)N[C@H](C(=O)N[C@@H](CO)C(=O)N[C@H](C(=O)N[C@@H](CCC(=O)O)C(=O)N[C@H](C(=O)N1CCC[C@@H]1C(=O)N1CCC[C@H]1C(=O)N[C@H](C(=O)N[C@@H](CCC(=O)O)C(=O)N[C@H](C(=O)N[C@@H](CO)C(=O)N[C@H](C(=O)N[C@@H](CCC(=O)O)C(=O)N[C@H](C(=O)N[C@@H](CCC(=O)O)C(=O)N[C@H](C(N)=O)C(C)C)C(C)C)C(C)C)C(C)C)[C@@H](C)O)C(C)C)C(C)C)C(C)C)C(C)C)C(C)C
As to B1, the binding result is “binds”.

The record behind these values is article PMC6891851 (ACS Central Science, 2019).
